Laboratory results as given in the supplement of paper PMC12636428.

System: Saccharomyces cerevisiae
Experiment: transcriptional activation domain activity (GFP:mCherry ratio, weighted mean of sorted bins, harmonized to initial dataset scale) (arbitrary fluorescence ratio units); higher = stronger transcriptional activation
Details: beta-estradiol 1 µM; induction time 4 h
Procedure, shortened: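 After a 1:5 dilution into SC with 1 uM beta-estradiol and 4 hours at 30 °C, yeast diploids carrying a GFP reporter and URA3-integrated barcoded tiles were sorted into 8 bins by GFP:mCherry ratio. The tiles were fused to an estradiol-inducible synthetic transcription factor. Barcodes were sequenced, tiles below 50 reads were discarded, and activation activity was taken as the read-weighted mean of bin median fluorescence, averaged across barcodes and linearly mapped onto the initial dataset scale.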

Sequence | transcriptional activation domain activity
MSWQRVYRGWVVNGPGFGFFGRYYWIIIIRLAVPRRLLTCSCWCFGWLLFFLI | 65700
MLFPFRVSAISPDVICFIPLCFSFCYHFAIRVRGILPSRVRALMMYVWFVWYF | 51900
SIFVVFFISFVPLVVQELTERGFWRAATRLAKHFGSLSFLFEVFVCQVYANSL | 65500
LSLYRLSFPASFSLFSSFPSCLVAFPFPLPLPLPLPPSCSPFLLLLLLLLFFS | 51900
MAFFYLCYIIISLVLYLFFLCSSFCCFMIHEFSLLSSLSQFSQRVYIGWSFFR | 58300
VCKHLKRQRISVDGSLKLISDMNHYFTYIETLKNNELLLYFKALRELSQIYLV | 70700
QTTDLVQWLAMPCNLPWVVYVLDRVRNLLRFVIVLSEVEITEDLKRRIMAIYT | 77400
MVCTLDHFQFVGLIYFAFFFIVISYFIDSVIFILFFVYFPFFVFLLLFVIAFY | 54800
MLQQRGILRVFRIGLFILFVILLFSFLVFVTFFISLAFPHLLLVLCIFFHFFN | 44200
MNPTPAVFALFFPVIFCVYICYAWFLLFFVFWEPFFFLHIFLYRIILLSIWNL | 29900
IQEEVKAKKKRKSRKGAKEEGEASPAESSESDGEQEKPKKKASRKKKRPKVEG | 27600
KKDEEQTSSSTPSPPPQESAEKNEAKDEEKPAEQKAKKKPKKLQVRSAGTPAP | 7630
MKFCFIVWLSCMCIYFAKVIVVFLIALCLDNIFPFHIPNTKLLIPSTHFMITW | 57500
PLALDFPPLGHMVELVDVVMWLCGRAGELPMWPQKIFNFNWIELSMKYPHHFI | 50500
ISMEKIGRRAFNKGMKNIDEGPETENDATENSLTTILNDLEGPLEDFSENFID | 34300
MTSRLHIICHICVFYGYILMFQAITSYHYFILLCILILILYLLTFILAHFYKY | 36800
DFKHPMEPLACNWEDCDFLGDDTCSIVNHINCQHGINFDIQFANPDSFLPGSI | 141000
IIYVPQARLMNFFNALTTQSFLYFWAVCLMRLHIAAFLPNLHNGKPYLITVYT | 47500
AGNATAGTGTGKGKGKGKGKGKGKGKKAGKNAGKNAGKNAGKNSTAAAGGQQK | 20100
ILMLFLGCLVICDLAFNIIVTILAFTTGFTHLLLSLVPTIPPPNCFLVHWQNH | 54600
LELNWAIGGGDLKHRMNKLREFLEEGRRVEVLLGPKKRGRKATPEEAQGVVKA | 34200

Sequence | transcriptional activation domain activity
TDPKPITDNGKNVPLDEIESLEIPNLDLTTTMNGYDVNLLMQNLNDMVNMKLH | 91600
LTLFVHFVKLSGILGEVLRRIYSPKAKINGYRTKTMSQTVWSLQRMLNEWLTN | 53300
RLLRLLLRLLRLLLLRLLLLLLLLLLLLLLLRLLLRLLVTLILFLNIQRVLIL | 16300
MNYLFSCFKFFLFFFFFLLFSFSPHLFFIFSCLLYLACLCVCVWWKGPFSCIS | 72500
EQWECTKLVLFSHFTIELPIIWLFHPVAEALGMTTYQVPFPSLQKMAIQIFLF | 39400
PEVMHALLFWTSNLLLFGINAIAFSKVSWFITLIRLVVNCRQKVALWMLMVFS | 60100
MLFIYEVFPSFSHSPIHSPFISFPSSLPSLSLPESLCICLWIVLFLTFNFYTL | 56900
PGLVGVFFIFSSPFSGFCFCFCFCLFELIFFFFFFFYYFLSRIGVLTRLSAGF | 45800
DFTLEQDPDVLDTWFSSGLWPFSILGWPDKTPDLKTFYPATILETGWDILFFW | 54800
RRRWINSTIHNLFEVVLLPDLCGFCCFSMRFVVLIDLIGTLTLPVSVIYLVYL | 63200
FWGLRSLPSSPFICLFLFYCGLVLMHSGLYLGLFLFLLFLSLSVFLFLSHFSV | 30100
MGTTGWRTRAIPYGFVFFYFILVMSLFFSSPLLTTTAVFILFYLLFLFSCYSS | 36000
LVLYHDKFTTYLFAVFFFSLLPHVISSLFFFFFFFFWFLIKCIAMTPQFLFFF | 34200
AEAEKMDVDPAVSTAETEVKQESPAPAAATSVSTPEVKVTPSSAHPSLPAKPL | 18400
RKTKFPILLSGDGYIHFGFLYAVIPNLNIMAMSYVAVINNVRVVAYLCLWMSL | 50800
PQQNIAPPFLNTNSSATDSNPNTNLEDSLFFDHDLLSSSITNTNNGQGSNNGR | 24800
LLFTLLWLLFFFFFFLFLLFFFVVLVFVFFVVYFFILLLLFIVVDDEWVLLGL | 45300
RKNTSSEEDELEESRNNRNKNHRSRQDGNKEDRSSRSRQSHRQKRERSGSEER | 14100
MGCKLIILFSSAMLFLFFSVLFLLLPLFFLSPTTCFLSFWLRLWLLLMVHWGR | 47600
RRRWINSTVHNLCELIILPELFGFCCFSMRFFVFLDLLGTLILPATVVYLVYL | 51600
